Test results taken from patent US20210205365A1, “Chimeric Growth Factor Receptors” (Instil Bio (UK) Ltd., priority 2018, published 2021).

B1: WT TpoR: Wild type TpoR, SEQ ID NO: 1, 635 amino acids (protein, listed as Homo sapiens)
chain: MPSWALFMVTSCLLLAPQNLAQVSSQDVSLLASDSEPLKCFSRTFEDLTCFWDEEEAAPSGTYQLLYAYPREKPRACPLSSQSMPHFGTRYVCQFPDQEEVRLFFPLHLWVKNVFLNQTRTQRVLFVDSVGLPAPPSIIKAMGGSQPGELQISWEEPAPEISDFLRYELRYGPRDPKNSTGPTVIQLIATETCCPALQRPHSASALDQSPCAQPTMPWQDGPKQTSPSREASALTAEGGSCLISGLQPGNSYWLQLRSEPDGISLGGSWGSWSLPVTVDLPGDAVALGLQCFTLDLKNVTCQWQQQDHASSQGFFYHSRARCCPRDRYPIWENCEEEEKTNPGLQTPQFSRCHFKSRNDSIIHILVEVTTAPGTVHSYLGSPFWIHQAVRLPTPNLHWREISSGHLELEWQHPSSWAAQETCYQLRYTGEGHQDWKVLEPPLGARGGTLELRPRSRYRLQLRARLNGPTYQGPWSSWSDPTRVETATETAWISLVTALHLVLGLSAVLGLLLLRWQFPAHYRRLRHALWPSLPDLHRVLGQYLRDTAALSPPKATVSDTCEEVEPSLLEILPKSSERTPLPLCSSQAQMDYRRLQPSCLGTMPLSVCPPMAESGSCCTTHIANHSYLPLSYWQQP
modifications: MISC_FEATURE (1)..(491): TpoR Extracellular Domain; MISC_FEATURE (492)..(513): TpoR Transmembrane Domain; MISC_FEATURE (514)..(635): TpoR Cytoplasmic Domain

Columns and labels:
circulating platelets = settings: 73 healthy volunteers, higher doses; cited from earlier work
T-cells = settings: via administration of Tpo or Eltrombopag; cited from earlier work
[1] = Previous attempts to modify TpoR (surface expression, activity); type: cell-based; settings: previously validated
Description: However attempts to modify the receptor were not always straightforward. […] Furthermore, Applicants felt that they could improve the signalling capacity of TpoR-based receptors in T-cells by including signalling components which activate JAK3, a signalling molecule involved in IL-2 signalling but not in TpoR signalling, and therefore more likely to drive IL-2 like signals in engineered cells.
Applicants therefore aimed to generate fusion receptors wherein additional domains were fused directly to the C-terminus of the TpoR IC domain. Applicants first generated a fusion between TpoR and the IL2rβ signalling domain. […] Applicants therefore took an alternative approach where a hybrid TpoR-IL2rβ signalling domain was created whereby the I2rβ signalling region was fused N- or C-terminal to TpoR signalling domain. Next Applicants generated receptors where the cytoplasmic domain of TIAF1, TLR1, CD150, IL2rγ, CD40, LMP1 and ITAM1 from CD3ζ were fused C-terminal to the TpoR signalling domain. […] Applicants also generated CrGFR consisting of TpoR extracellular and transmembrane domain fused to the cytoplasmic domain of CD28 and CD137 as Applicants felt these would provide a costimulatory growth signal upon Eltrombopag administration, sequences of these constructs are provided below.

primary human T-cells = assay: Eltrombopag and IL-2 on CrGFR sorted (CD110+) primary human T-cells, up to 7 days; type: cell-based; settings: second donor (FIG. 12)
Experimental: FIG. 10—Analysis of Eltrombopag and IL-2 on CrGFR sorted primary human T-cells from Donor 4. Primary human T-cells from donor 4 were transduced with the WT TpoR or variant CrGFR, and enriched for expression by Miltenyi MACS technology selected for and incubated in the presence of IL2 or Eltrombopag. Cells were removed at time points up to 7 days and the number of cells expressing the receptor assessed using PE conjugated anti-CD110 antibodies, DRAQ7 viability dye and a MACSQuant analyser.
FIG. 11—Analysis of Eltrombopag and IL-2 on CrGFR sorted primary human T-cells from Donor 5. Primary human T-cells from donor 5 were transduced with the WT TpoR or variant CrGFR, and enriched for expression by Miltenyi MACS technology selected for and incubated in the presence of IL2 or Eltrombopag. Cells were removed at time points up to 7 days and the number of cells expressing the receptor assessed using PE conjugated anti-CD110 antibodies, DRAQ7 viability dye and a MACSQuant analyser.
FIG. 12—Analysis of Eltrombopag and IL-2 on CrGFR sorted primary human T-cells from Donor 6. Primary human T-cells from donor 6 were transduced with the WT TpoR or variant CrGFR, and enriched for expression by Miltenyi MACS technology selected for and incubated in the presence of IL2 or Eltrombopag. Cells were removed at time points up to 7 days and the number of cells expressing the receptor assessed using PE conjugated anti-CD110 antibodies, DRAQ7 viability dye and a MACSQuant analyser.
Paramagnetic bead sorts were conducted as per the manufacturers' instructions using either anti-PE microbeads (Miltenyi Biotec or StemCell Technologies), or T-cell isolation beads (17951: StemCell Technologies).
Next Applicants repeated the experiment but sorted the CrGFR+ cells using CD110+ selection by paramagnetic bead selection using the receptors identified from the first round of selections (FIGS. 10, 11 and 12). Applicants observed enhanced survival of T-cells engrafted with the majority of the CrGFR in all three donors. In particular Applicants saw expansion of WT-TpoR, TpOR.CD40, TpOR.IL2rγ and TpoR.LMP1-cyto cells in the second donor (FIG. 12) above that with media alone.

| Molecule | tolerability (circulating platelets) | survival and expansion of engineered T-cells (T-cells) | activity in primary human T-cells [1] | expansion of CrGFR cells above that with media alone (primary human T-cells) |
| --- | --- | --- | --- | --- |
| CC1=NN(c2ccc(C)c(C)c2)C(=O)/C1=N\Nc1cccc(-c2cccc(C(=O)O)c2)c1O [Eltrombopag] | without tolerability problems | – | – | – |
| B1 | – | could permit controlled survival and expansion of T-cells | can have activity | expansion |
